Test results published in paper PMC5141509, “Identification of protein structural elements responsible for the diversity of sequence preferences among Mini-III RNases”.

T1: BsMiniIII (Bacillus subtilis, UniProt O31418 1-143)
T1 sequence: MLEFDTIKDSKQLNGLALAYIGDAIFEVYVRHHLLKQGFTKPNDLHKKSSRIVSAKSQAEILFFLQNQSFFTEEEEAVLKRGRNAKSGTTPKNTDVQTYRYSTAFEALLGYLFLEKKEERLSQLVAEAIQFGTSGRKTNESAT


Experiments:
SeMiniIII = test: filter binding; settings: Enzyme-specific cleavage buffer (Table S1, mostly not in material) with MgCl2 replaced by 1 mM CaCl2; 1.5 nM 33P-dsRNA, 50 ul, 1 h at room temperature …
[1] = test system: Ct(FpHL)MiniIII (chimera); test: filter binding; settings: Enzyme-specific cleavage buffer (Table S1, mostly not in material) with MgCl2 replaced by 1 mM CaCl2; 1.5 nM 33P-dsRNA, 50 ul, 1 h at room temperature …
CtMiniIII = test: filter binding; settings: Enzyme-specific cleavage buffer (Table S1, mostly not in material) with MgCl2 replaced by 1 mM CaCl2; 1.5 nM 33P-dsRNA, 50 ul, 1 h at room temperature …
Ct(FpH)MiniIII (chimera) = test: filter binding; settings: Enzyme-specific cleavage buffer (Table S1, mostly not in material) with MgCl2 replaced by 1 mM CaCl2; 1.5 nM 33P-dsRNA, 50 ul, 1 h at room temperature …
Ct(FpL)MiniIII (chimera) = test: filter binding; settings: Enzyme-specific cleavage buffer (Table S1, mostly not in material) with MgCl2 replaced by 1 mM CaCl2; 1.5 nM 33P-dsRNA, 50 ul, 1 h at room temperature …
FpMiniIII = test: filter binding; settings: Enzyme-specific cleavage buffer (Table S1, mostly not in material) with MgCl2 replaced by 1 mM CaCl2; 1.5 nM 33P-dsRNA, 50 ul, 1 h at room temperature …
BsMiniIII = target: T1, BsMiniIII; test: filter binding; 1 mM Ca2+ (no Mg2+); Enzyme-specific cleavage buffer (Table S1, mostly not in material) with MgCl2 replaced by 1 mM CaCl2; 1.5 nM 33P-dsRNA, 50 ul, 1 h at room temperature; nitrocellulose filter; one-site fit; settings: protein: recombinant; tags: N-terminal His6 (pET28a, NdeI/XhoI); chain copies: 2; label: 33P 5' end label; blunt

Molecule	Kd (SeMiniIII)	Kd [1]	Kd (CtMiniIII)	Kd (Ct(FpH)MiniIII (chimera))	Kd (Ct(FpL)MiniIII (chimera))	Kd (FpMiniIII)	Kd (BsMiniIII)
CCUGUCCCCCGCCGAAGUCGCUGCAAUU / AAUUGCAGCGACUUCGGCGGGGGACAGG [NEG]	190 nM	2250 nM	1340 nM	1940 nM	1800 nM	19900 nM	–
GCUGGGAGGGAAACCUCUCUCUCUGGCC / GGCCAGAGAGAGAGGUUUCCCUCCCAGC [POS-ACCU]	160 nM	2170 nM	1140 nM	2620 nM	1330 nM	> 100000 nM	–
POS-ACCU (dsRNA) RNA 1: GCUGGGAGGGAAACCUCUCUCUCUGGCC RNA 2: GGCCAGAGAGAGAGGUUUCCCUCCCAGC	–	–	–	–	–	–	140 ± 20 nM
NEG (dsRNA) RNA 1: CCUGUCCCCCGCCGAAGUCGCUGCAAUU RNA 2: AAUUGCAGCGACUUCGGCGGGGGACAGG	–	–	–	–	–	–	70 ± 10 nM
